Experimental data from US7842460.

T1: (yeast SUMO) Smt3-PLA2mX fusion, Q9QXX3
T1 chain: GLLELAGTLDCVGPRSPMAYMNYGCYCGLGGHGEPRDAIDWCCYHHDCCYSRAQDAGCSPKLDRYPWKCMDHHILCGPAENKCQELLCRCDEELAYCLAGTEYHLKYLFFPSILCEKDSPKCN

T2: SUMO-GPATase fusion protein from pET24-6H-SUMO-GPATase, P0AG16
T2 chain: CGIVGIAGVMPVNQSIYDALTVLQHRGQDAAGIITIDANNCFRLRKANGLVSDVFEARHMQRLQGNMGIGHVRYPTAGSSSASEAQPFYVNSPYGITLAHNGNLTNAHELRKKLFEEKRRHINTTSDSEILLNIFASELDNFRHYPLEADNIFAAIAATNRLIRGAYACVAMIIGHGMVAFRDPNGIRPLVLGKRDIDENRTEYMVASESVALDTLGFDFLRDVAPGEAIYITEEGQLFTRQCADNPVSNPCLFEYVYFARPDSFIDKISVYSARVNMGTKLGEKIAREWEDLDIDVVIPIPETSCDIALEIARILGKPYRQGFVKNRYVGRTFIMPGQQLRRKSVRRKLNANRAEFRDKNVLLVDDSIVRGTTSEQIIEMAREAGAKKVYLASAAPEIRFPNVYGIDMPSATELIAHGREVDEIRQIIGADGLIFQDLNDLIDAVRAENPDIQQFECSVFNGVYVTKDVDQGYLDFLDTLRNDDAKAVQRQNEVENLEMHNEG

T3: Smt3-3Dpol (Mahoney strain) fusion from pET24-6H-SUMO-3Dpol, P03300
T3 chain: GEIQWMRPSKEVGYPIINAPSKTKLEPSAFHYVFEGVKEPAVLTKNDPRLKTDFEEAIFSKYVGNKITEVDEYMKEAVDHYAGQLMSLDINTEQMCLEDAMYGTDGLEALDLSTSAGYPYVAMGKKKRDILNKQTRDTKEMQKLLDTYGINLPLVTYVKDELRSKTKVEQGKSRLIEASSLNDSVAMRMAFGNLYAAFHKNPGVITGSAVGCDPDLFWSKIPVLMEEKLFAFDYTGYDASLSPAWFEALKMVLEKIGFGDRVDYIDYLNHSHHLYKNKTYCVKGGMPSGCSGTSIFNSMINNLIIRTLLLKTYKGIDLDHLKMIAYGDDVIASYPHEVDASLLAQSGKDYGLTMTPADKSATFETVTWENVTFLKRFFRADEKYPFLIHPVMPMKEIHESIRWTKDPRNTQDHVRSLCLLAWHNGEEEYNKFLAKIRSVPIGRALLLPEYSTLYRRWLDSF

T4: Ubiquitin-PLA2mX fusion, Q9QXX3
T4 chain: T1 chain

B1: C-terminal His-tagged SUMO protease 1, ULP1 (403-621)p (protein)
chain: LVPELNEKDDDQVQKALASRENTQLMNRDNIEITVRDFKTLAPRRWLNDTIIEFFMKYIEKSTPNTVAFNSFFYTNLSERGYQGVRRWMKRKKTQIDKLDKIFTPINLNQSHWALGIIDLKKKTIGYVDSLSNGPNAMSFAILTDLQKYVMEESKHTIGEDFDLIHLDCPQQPNGYDCGIYVCMNTLYGSADAPLDFDYKDAIRMRRFIAHLILTDALK
B2: SENP2 isopeptidase (protein)
chain: DLLELTEDMEKEISNALGHGPQDEILSSAFKLRITRGDIQTLKNYHWLNDEVINFYMNLLVERNKKQGYPALHVFSTFFYPKLKSGGYQAVKRWTKGVNLFEQEIILVPIHRKVHWSLVVIDLRKKCLKYLDSMGQKGHRICEILLQYLQDESKTKRNSDLNLLEWTHHSMKPHEIPQQLNGSDCGMFTCKYADYISRDKPITFTQHQMPLFRKKMVWEILHQQLL
B3: Den1, a Nedd8-specific isopeptidase (protein)
chain: MDPVVLSYMDSLLRQSDVSLLDPPSWLNDHIIGFAFEYFANSQFHDCSDHVSFISPEVTQFIKCTSNPAEIAMFLEPLDLPNKRVVFLAINDNSNQAAGGTHWSLLVYLQDKNSFFHYDSHSRSNSVHAKQVAEKLEAFLGRKGDKLAFVEEKAPAQQNSYDCGMYVICNTEALCQNFFRQQTESLLQLLTPAYITKKRGEWKDLITTLAKK

How the values were obtained:
[1] = target: T1, (yeast SUMO) Smt3-PLA2mX fusion, Q9QXX3
[2] = target: T2, SUMO-GPATase fusion protein from …
[3] = target: T3, Smt3-3Dpol (Mahoney strain) fusion from …
[4] = target: Smt3-tryptase (6xHis-SUMO-human tryptase fusion, secreted from Sf9 insect cells) [SUMO: Q12306]
[5] = target: T4, Ubiquitin-PLA2mX fusion, Q9QXX3
[6] = target: human SUMO3-PLA2mX fusion, P55854
[7] = target: human Nedd8-PLA2mX fusion, Q15843
Chain of human Nedd8-PLA2mX fusion, Q15843 (Q15843 whole entry, looked up, the tested form may be a part): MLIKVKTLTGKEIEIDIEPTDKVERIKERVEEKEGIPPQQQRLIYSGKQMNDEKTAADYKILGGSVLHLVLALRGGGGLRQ

Chain of Smt3-tryptase (6xHis-SUMO-human tryptase fusion, secreted from Sf9 insect cells) [SUMO: Q12306] (Q12306 whole entry, looked up, the tested form may be a part): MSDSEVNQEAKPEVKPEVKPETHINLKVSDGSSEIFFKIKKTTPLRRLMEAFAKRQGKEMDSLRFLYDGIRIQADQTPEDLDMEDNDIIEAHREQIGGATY

Row | Protein | Ratio of PLA2 activity, fusion with isopeptidase over fusion without [1] | cleavage of the fusion by SDS-PAGE (10 ug fusion, 1 ug Ulp-1, one hour) [1] | GPATase activity by coupled glutamate dehydrogenase assay, absorbance at 363 nm [2] | glutaminase activity of GPATase (coupled GDH assay) [2] | cleavage of the fusion by SDS-PAGE and Coomassie Blue staining [3] | tryptase activity, peptidyl chromogenic substrate, absorption at 410 nm [4] | cleavage of the fusion by SDS-PAGE [5] | Ratio of PLA2 activity, fusion with isopeptidase over fusion without [6] | cleavage of the fusion by SDS-PAGE (10 ug fusion, 1 ug SENP2) [6] | Ratio of PLA2 activity, fusion with isopeptidase over fusion without [7] | cleavage of the fusion by SDS-PAGE [7]
1 | B1 | 7.04 | complete cleavage of the reporter fusion protein to yield the separate constituents, Smt3 (at 21 kDa) and 14 kDa PLA2mX | there was an increase is absorbance at the OD 363 reading ... In the absence of Ulp1, this increase of absorbance did not occur | at least a 10-fold increase in the glutaminase activity of GPATase | resulted in 100% of cleavage of 3Dpol | augmented tryptase activity was measured | The yeast ULP1 enzyme failed to cleave the Ubiquitin-PLA2mX fusion protein | – | – | – | –
2 | B2 | – | – | – | – | – | – | The SENP2 enzyme failed to cleave the Ubiqutin-PLA2mX fusion protein | 9.95 | the appropriately sized hSUMO3 (21 kDa) and PLA2mX (14 kDa) bands were observed, indicating complete cleavage of the fusion protein | – | –
3 | B3 | – | – | – | – | – | – | – | – | – | 3.38 | the Nedd8-fusion protein became cleaved and 14 kDa PLA2mX and 9 kDa Nedd8 bands appear
